Percent of cells with the binder data for 1 substance are collected here from paper PMC3982596.

The target in the assay is YFP-LacI-HP1α (human) (UniProt P45973).
Chain of UniProt P45973 (P45973 whole entry): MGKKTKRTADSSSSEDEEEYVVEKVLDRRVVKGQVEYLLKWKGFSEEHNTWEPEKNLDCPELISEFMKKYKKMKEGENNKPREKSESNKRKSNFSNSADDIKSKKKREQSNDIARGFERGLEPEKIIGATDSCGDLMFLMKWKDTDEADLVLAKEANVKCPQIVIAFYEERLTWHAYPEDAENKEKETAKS

In the case of “CFP-NDR1 (from UniProt Q15208 1-465) (enzyme)”, the percent of cells with the binder at the tethered locus (% of the cells) came to 18.
